Reference: the nanobody polyreactivity screen of Harvey et al. (2022)

Experiment: yeast display, Sf9 membrane polyspecificity reagent, FACS + sequencing; frameworks hold sequencing errors
Summary of the method: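 Synthetic nanobody libraries on Saccharomyces cerevisiae BJ5465 were galactose-induced for 36–48 hours, stained 1 hour at 4 °C with 10% biotinylated, detergent-solubilized Sf9 membrane reagent and enriched on streptavidin microbeads. FACS then separated cells into low and high (top ~1%) gates by anti-HA (expression) and streptavidin (reagent binding) fluorescence. Genes were colony-PCR amplified, MiSeq 2 × 250 sequenced and CDR-length filtered. A clone's polyreactivity label is that of its gate of origin.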

Sequence | polyreactivity (PSR sort gate)
QVQLVESGGGLVQAGGSLRLSCAASGSTLGRYAMGWYRQAPGKERELVASITWSDDSTYYADSVKGRFTISRDNAKNTVSLQMNSLKPEDTAVYYCAAAANLYTYRFYYWGQGTQVTVSS | low polyreactivity
QVQLVESGGGLVQAGGSLRLSCAASGSTLGVNAMGWYRQAPGKEREFVAAITGRGGNTYYADSVKGRFTISRDNAKNTVYLQMNSLKPEDTAVYYCAARVKYTRYQSILDYYYWGQGTQVTVSS | high polyreactivity
QVQLVESGGGLVQAGGSLRLSCAASGSTLGVYVMGWYRQAPGKERELVAAISRNGGSTYYADSVKARFTISRDNAKNTVYLQMNSLKPEDTAVYYCAARTVGRKACFDYWGQGTQVTVSS | high polyreactivity
QVQLVESGGGLVQAGGSLRLSCAASGSTLGYYAMGWYRQAPGKERELVAAISGRGTSTYYADSVKGRFTISRDNAKTTVYLQMNSLKPEDSAVFYCAAQLFRELYWGQGTQVNVSS | high polyreactivity
QVQLVESGGGLVQAGGSLRLSCAASGSTLGYYAMGWYRQAPGKERELVAAISWRTDSTYYADSVKGRFTISRDNAKNTVYLQMNSLKPEDTAVYYCAAQGAYDTYYAQTYGYWGQGTQVTVSS | low polyreactivity
QVQLVESGGGLVQAGGSLRLSCAASGSTLGYYGMGWYRQAPGKERELVAAISGRGTSTYYADSVKGRCTISRDNAKNTVYLQMNSLKPEDTAVYYCAAQLFRELYWGQGTQVTVSS | high polyreactivity
QVQLVESGGGLVQAGGSLRLSCAASGSTLGYYTMGWYIQAPGKERELVAAITRSGGSTYYADSVKGRFTISRDNAKNTVYLQMNSLKPEDTAVYYCAARSYQGTSSGRVTRRYDYWGQGTQVTVSS | high polyreactivity
QVQLVESGGGLVQAGGSLRLSCAASGSTLGYYTMGWYRQAPGKERELVAAISYGGGSTYYADSVKGRFTISRDNAKNTVYLQMNSLKPEDTAVYYCAARWGKSWRGYGYWGQGTQVTVSS | high polyreactivity
QVQLVESGGGLVQAGGSLRLSCAASGSTLLGNTMGWYRQAPGKERELVAAISWSGGSTYYADSVKGRFTISRDNAKNTVYLQMNSLKPEDTAVYYCNALGRENKGSYGYDYWGQGTQVTVSS | low polyreactivity
QVQLVESGGGLVQAGGSLRLSCAASGSTLLYYAMGWSRQAPGKERELVAAITSGARTYYADSVKGRFTISRDNAKNTVYLQMNSLKPEDTAVYYCNAYRTSWWRAYDYWGQGTQVTVSS | high polyreactivity
QVQLVESGGGLVQAGGSLRLSCAASGSTLNDYTMGWYRQAPGKERELVAAIRVSGARTFYADSVKGRFTISRDNAKNTVYLQMNSLKPEDTAVYYCAARWYIANPLSPSDYWGQGTQVTVSS | low polyreactivity
QVQLVESGGGLVQAGGSLRLSCAASGSTLNIYAMGWYRQAPGKERELVAAISWTDDTTYYADSVKGRFTISRDNAKNTVYLQMNSLKPEDTAVYYCAAEIYSWSDAQQYDYWGQGTQVTVSS | high polyreactivity
QVQLVESGGGLVQAGGSLRLSCAASGSTLNLYAMGWYRQAPGKEREVVAGITGGGSSTYYADSVKGRFTISRDNAKNTVYLQMNSLKPEDTAVYYCNVEPGYYYYRHWVAYSHGYGYWGQGTQVTVSS | low polyreactivity
QVQLVESGGGLVQAGGSLRLSCAASGSTLNSYAMGLYRQAPGKDRELVAAISWSGGSTYYADSVKGRFSISRDNAKNTVYLQMNSVKAEDTAVYYCNAAFWWDYAYGVDYWGQGTQVTVSS | low polyreactivity
QVQLVESGGGLVQAGGSLRLSCAASGSTLNSYVMGWYRQAPGKERELVATIRSGSSTNYADSVKGRFTISRDNAKNTVYLQMNSLKPEDTAVYYCAADAYSLCYDSWGQGTQVTVSS | low polyreactivity
QVQLVESGGGLVQAGGSLRLSCAASGSTLPAYTMAWYRQAPGKERELVAAISYRGGSTYYADSVKGRFTISRDNAKNTVYLQMNSLKPEDTAVYYCAAVYSVAYASTHYRIYDYWGQGTQVTVSS | high polyreactivity
QVQLVESGGGLVQAGGSLRLSCAASGSTLPGNVMGWYRQAPGKERELVAAISWTGGSTYYADSVKGRFTISRDNAKNTVYLQMNSLKPEDTAVYYCAVDAYESPWWSDPYEYWGQGTQVTVSS | low polyreactivity
QVQLVESGGGLVQAGGSLRLSCAASGSTLPRYTMGWYRQAPGKERELVAAISFSGSSTYYADSVKGRFTISRDNAKNTVYLQMNSMKPEDTSVYYCRYGYNYWGQGTQVTVSS | high polyreactivity
QVQLVESGGGLVQAGGSLRLSCAASGSTLQRYAMGWYRQAPGKERELVAAISSGGRTYYADSVKGRFTISRDNAKNTVYLQMNRLKPEDTAVYYCAAVLPARSEPVRYYYWGQGTQVTVSS | high polyreactivity
QVQLVESGGGLVQAGGSLRLSCAASGSTLRDYVMGWYRQAPGKERELVAAITSRVDDTYYADSVKGRFTISRDNAKNTVYLQMNSLKPEDTAVYDCAADYSVTLRIGGYYWFYAFDYWGQGTQVTVSS | low polyreactivity
QVQLVESGGGLVQAGGSLRLSCAASGSTLRGYTMGWYRQAPGKERELVAAISWSGASTYYADSVKGRFTISRDNAKNTVYLQMNSLKPEDTAVYYCNRAGRYVREYTVDYWGQGTQVTVSS | high polyreactivity
QVQLVESGGGLVQAGGSLRLSCAASGSTLRPYGMGWYRQAPGKERELVATIRSSSGRTYYADSVKGRFTISRDNAKNTVYLQMNSLKPEDTAVYYCARRYITNIKYDYWGQGTQVTVSS | high polyreactivity

Sequence | polyreactivity (PSR sort gate)
QVQLVESGGGLVQAGGSLRLSCAASGSTLRSYTMGWYRQAPGKERELVAAITTTGRTYYADSVKGRFTISRDNAKNTVYLQMNSLKPEDTAVYYCNAVAPGKYNHWGQGTQVTVSS | high polyreactivity
QVQLVESGGGLVQAGGSLRLSCAASGSTLRTYAMGWYRQAPGKERELVAAISFSTTSTYYADSVKGRFTISRDNAKNTVYLQMNSLKPEDTAGYDCAAGPRTRYQPDLPGCYYSWGQGTQVTVSS | high polyreactivity
QVQLVESGGGLVQAGGSLRLSCAASGSTLRYNTMGWYRQAPGKERELVAAISVRGGSTYYADSVKGRFTISRDNAKNTVYLQMNSLKPEDTAVYYCARRIKLGQRQGGYYWGQGTQVTVSS | high polyreactivity
QVQLVESGGGLVQAGGSLRLSCAASGSTLSYYAMGWYRQAPGKERELVAAISFSGGITYYADSVKGRFTISRDNAKNTVYLQMNSLKPEDTAVYYIKAEYKVYRAYVIWYDYWGQGTQVTVSS | high polyreactivity
QVQLVESGGGLVQAGGSLRLSCAASGSTLSYYAMGWYRQAPGKERELVAAISSGGTTNYADSVKGRFTISRDNAKNTVYLQMNSLKPEDTAVYYCAAVRKSWWYSSEYYYWGQGTQVTVSS | low polyreactivity
QVQLVESGGGLVQAGGSLRLSCAASGSTLTANAMGWYRQAPGKERELVAAISSAGRTYYADSVKGRFTISRDNAKNTVYLQMNSLKPEDTAVYYCAAPYGQLFTQGTWYEYWGQGTQVTVSS | low polyreactivity
QVQLVESGGGLVQAGGSLRLSCAASGSTLVANAMGWYRQAPGKERELVARITSGTSTYYADSVKGRFTISRDNAKNTVYLQMNSLKPEDTAVYYCAAGRWTRRRTYDSWGQGTQVTVSS | high polyreactivity
QVQLVESGGGLVQAGGSLRLSCAASGSTLVGYVMGWYRQAPGKERELVAAITTVGSTYYADSVKGRFTISRDNAKNTVYLQMNSLKPEDTAVYYCAADRSDLAEEGYAGYDYWGQGTQVTVSS | low polyreactivity
QVQLVESGGGLVQAGGSLRLSCAASGSTLVGYVMGWYRQAPGKERELVATISRSGGSTYYADSVKGRFTISRDNAKNTVYLQMNSLKPEDTAVYYCATDLLNNVDYDYWGQGTQVTVSS | low polyreactivity
QVQLVESGGGLVQAGGSLRLSCAASGSTLVKYAMGWYRQAPGKERELVAAISWSGGRTYYADSVKGRFTISRDNAKNNVYLQMNSLKPEDTAVYYCAARRKAVRYDYWGQGTQVTVSS | high polyreactivity
QVQLVESGGGLVQAGGSLRLSCAASGSTLVQYVMGWYRQAPGKERELVAAISGSGGSTYYADSVKGRFTISRDNAKNTVYLQMNSLKPEDTAVYYCAASRRSGYGYWGQGTQVTVSS | high polyreactivity
QVQLVESGGGLVQAGGSLRLSCAASGSTLVRKAMGWYRQAPGKERELVAAISRSGGRTYYADSVKGRFTISRDNAKNTVYLQMNSLKPEDTAVYYCARLDGFSASDHDYWGQGTQVTVSS | high polyreactivity
QVQLVESGGGLVQAGGSLRLSCAASGSTLVTYAMAWYRQAPGKERELVAAISGGTGTDYADSVKGRFTISRDNAKNTVYLQMNSLKPEDTAVYYCAAKSSSNKVDYYYWGQGSQVTVSS | low polyreactivity
QVQLVESGGGLVQAGGSLRLSCAASGSTLVYNDMGWYRQAPGKEREFVAAIRSNDGSTYYADSVKGRFTISRDNAKNTVYLQMNSLKAEDTAVYYCNKDVWDGYDWPEFDYWGQGTQVTVSS | low polyreactivity
QVQLVESGGGLVQAGGSLRLSCAASGSTLVYNDMGWYRQAPGKEREFVAAIRSNDGSTYYADSVKGRFTISRDNAKNTVYLQMNSLKPEDTAVYYCNARNQVYKIYYSDYRRYDYWGQGTQVTVSS | low polyreactivity
QVQLVESGGGLVQAGGSLRLSCAASGSTLVYYDMGWYRQAPGKERELVATITGTDSAYYAVSVKGRFTISRDNAMNTVYLQMNRLKPEDTADCAADRAASRADYEYWGQGTQVTVSS | low polyreactivity
QVQLVESGGGLVQAGGSLRLSCAASGSTLWIYAMGWYRQAPGKERELVAAISWSTGRTYYADSVKGRFTISRDNAKNTVYLQMNSLKPVDTAVYYCNAGPQHNTLKLFYYWGQGTQVTVSS | low polyreactivity
QVQLVESGGGLVQAGGSLRLSCAASGSTLWLYAMGWYRQAHGKERELVAVISNSGSTYYAESVKGRFTISRDNAKNTVYLQMNSLKPEDTAVYSCNKDGGGDSYWYDYWGQGTQVTVSS | low polyreactivity
QVQLVESGGGLVQAGGSLRLSCAASGSTLWYNAMGWYRQAPGKERELVATITAGGGSTYYADSVKGRFTISRDNAKNTVYLQMNSLKPEDTAVYYCATPVASVTGYDYWGQGTQVTVSS | low polyreactivity
QVQLVESGGGLVQAGGSLRLSCAASGSTLWYNAMGWYRQGPGKERELVASITSDGGSSTYADSVKGRFTISRDNAKYTVYLQMNSLKPEDTAVYYCAADWPIVQYDYWGQGTQVTVSS | low polyreactivity
QVQLVESGGGLVQAGGSLRLSCAASGSTLYCNAMGWYRQAPGKERELVAAISRSGGSTYYADSVKGRFTISRDNAKKTVYLQMNSLKPEDTAVYYCAARRYVPHTEYYYWGQGTQGTVSS | low polyreactivity
